From US20260159561A1 (MyNeuroCure Oy, priority 2017, published 2026)
“Also recorded” adds a separate entry of the source.

Columns and labels:
Type in all cases: in vivo
rat 6-OHDA model of PD = experiment: Neurorestoration study in 6-OHDA model of PD, amphetamine-induced rotations; conditions: intrastriatal injection 2 weeks after 6-OHDA lesioning; 2, 4, 6 and 8 weeks post-lesion
Experimental: In neurorestoration model of PD, rats were lesioned with 6-OHDA as described before (Voutilainen et al., 2009; Voutilainen et al., 2011, Penttinen et al., 2016). Briefly, rats received under isoflurane anesthesia unilateral stereotaxic injections of 3×2 μg 6-OHDA (in 10 degree angle) into the left striatum (coordinates relative to bregma and dura A/P+1.6; L/M −2.8; D/V −6, A/P 0.0: L/M −4.1; D/V −5.5 and A/P −1.2; L/M: −4.5; D/V −5.5). Two weeks later, rats were divided to groups based on their amphetamine-induced rotation results (size of the lesion). […] In the reference experiment after division of rats into groups, osmotic minipumps were inserted subcutaneously and cannula was placed into lesioned striatum. The minipump delivered MANF4 (i.e. MANF peptide CKGC, see WO2013034805), GDNF or vehicle solution into striatum for two weeks after which the minipump and cannula were removed. […] The number of amphetamine-induced (2.5 mg/kg, i.p.) full (360°) ipsi- and contralateral turns were recorded for 120 mins after a 30 min habituation period. The results are expressed as net ipsilateral turns to the lesion side Exclusion criterion was Mean (net rotations)±2×STDEV.

SOD1-G93A mice = experiment: SOD1-G93A mouse ALS model, 4-week chronic intracerebroventricular infusion; conditions: i.c.v. infusion 1.5 μg/24 h for 4 weeks, vs PBS
Source text: Transgenic SOD1 G93A mice served as a transgenic mouse model for ALS in this study. Transgenic mice containing various human SOD1 mutations develop progressive neurodegeneration and motoneuron (MN) death, providing an animal model that has been commonly used for preclinical trials and that has greatly contributed to the understanding of FALS pathogenesis (Gurney et al., 1994). […] In these mice hind limb weakness and tremulous movement appear as initial symptoms at 8-10 week of age, followed by major symptoms such as progressive motor paralysis and neurogenic amyotrophy (Shibata 2001). […] Transgenic expression was analyzed by DNA tail tests and PCR, using specific oligonucleotides and conditions as done previously by others (see homepage Jackson Lab). […]
In the chronic infusion experiment, 12-week-old SOD1 mice were inserted a brain infusion cannula (connected via catheter-tubing to an Alzet osmotic minipump) to the right lateral ventricle under isoflurane anesthesia. […] Motor behavior was evaluated with rotarod. Mice were evaluated for clinical signs and body weight changes.
Clinical scoring for SOD1 mice was done using instructions from Jackson laboratory. […] Animals were scored by lifting them gently by the base of their tails and observing them for tremors, stiffness and their ability to extend their limbs. […]

[1] = system: Huntington's disease rat model (quinolinic acid); experiment: Quinolinic acid Huntington's disease rat model, rotarod and grip strength; conditions: single intrastriatal injection 2 weeks after QA, vs QA+PBS
Source text: Adult Wistar rats received a single, unilateral intrastriatal injection of quinolinic acid (QA) 225 nmol into coordinates: A/P+0.7; L/M+2.8; D/V −6.0. Quinolinic acid is a toxin that induces striatal neuron death by an excitotoxic process. […] Rats were randomized to groups before the treatments started. Rotarod and grip strength tests were done weekly.

B1: C-CDNF: Human C-CDNF, SEQ ID NO: 4: C-terminal domain of mature CDNF, amino acid 101 to 161; recombinant, Histidine tag at C-terminus (protein, listed as Homo sapiens)
chain: KYEKTLDLASVDLRKMRVAELKQILHSWGEECRACAEKTDYVNLIQELAPKYAATHPKTEL
cumulative amphetamine-induced rotations (rat 6-OHDA model of PD): significantly reduces the cumulative amount of amphetamine-induced rotations | rotarod performance (motor coordination) (SOD1-G93A mice; significant week 13 until week 19): improves motor coordination | relative changes in body weight (SOD1-G93A mice; weeks 18 and 19): Significant differences between treatments in body weight | rotarod latency to fall (motor behavior) ([1]; equimolar to CDNF 10 micrograms): improved motor behavior statistically significantly; also recorded: improved motor performance in both rotarod and grip strength tests | grip strength (left paw) ([1]; 3 and 5 week time points): significantly improved performance at 3 and 5 week time points; also recorded: improved motor performance in both rotarod and grip strength tests
